According to article PMC6536551, “The viral protein corona directs viral pathogenesis and amyloid aggregation” (Nature Communications, 2019):

Target: the molecule itself
Test: thioflavin-T fluorescence

B1: NNFGAIL peptide (model amyloidogenic peptide derived from islet amyloid polypeptide, IAPP) (peptide)
peptide: NNFGAIL
notes: […]; text and methods print NNFGAIL; source: synthetic peptide (Pepscan)
binding result: binds
